Measurements as given in patent publication US20180072782A1 (UNIVERSITY OF GEORGIA RESEARCH FOUNDATION, published 2018).
One block for each binder: values may come before it. Bridges are numbered along the chain shown (N, C = ends). [ ]: non-standard residue; d: D form. The star is where a group is joined. Biotin = O=C1N[C@H]2[C@H](CS[C@H]2CCCCC(=O)*)N1; S5 = C=CCCC[C@](C)(N)C(=O)O; AEEEA = NCCOCCOCCOCC(=O)O

Molecular target: T1, Cytoplasmic FMR1-interacting protein 1 (CYFIP1), endogenous in MDA-MB-231 cells (human, UniProt Q7L576 1-1253)
T1 construct: Endogenous protein of a human breast cancer cell line, detected by western blot; also called SRA1
Assay: avidin-biotin pull-down with biotinylated peptide from treated MDA-MB-231 cells, western blot
Method: Specially, to determine the physical interaction with individual peptides, MDA-MB-231 cells were pretreated with 10 μM biotin-labeled peptides for 24 hours and lysates were incubated with immobilized avidin resin overnight at 4° C. The pull down samples were subjected to SDS-PAGE followed by Western blot analysis.

T1 sequence (Q7L576 whole entry): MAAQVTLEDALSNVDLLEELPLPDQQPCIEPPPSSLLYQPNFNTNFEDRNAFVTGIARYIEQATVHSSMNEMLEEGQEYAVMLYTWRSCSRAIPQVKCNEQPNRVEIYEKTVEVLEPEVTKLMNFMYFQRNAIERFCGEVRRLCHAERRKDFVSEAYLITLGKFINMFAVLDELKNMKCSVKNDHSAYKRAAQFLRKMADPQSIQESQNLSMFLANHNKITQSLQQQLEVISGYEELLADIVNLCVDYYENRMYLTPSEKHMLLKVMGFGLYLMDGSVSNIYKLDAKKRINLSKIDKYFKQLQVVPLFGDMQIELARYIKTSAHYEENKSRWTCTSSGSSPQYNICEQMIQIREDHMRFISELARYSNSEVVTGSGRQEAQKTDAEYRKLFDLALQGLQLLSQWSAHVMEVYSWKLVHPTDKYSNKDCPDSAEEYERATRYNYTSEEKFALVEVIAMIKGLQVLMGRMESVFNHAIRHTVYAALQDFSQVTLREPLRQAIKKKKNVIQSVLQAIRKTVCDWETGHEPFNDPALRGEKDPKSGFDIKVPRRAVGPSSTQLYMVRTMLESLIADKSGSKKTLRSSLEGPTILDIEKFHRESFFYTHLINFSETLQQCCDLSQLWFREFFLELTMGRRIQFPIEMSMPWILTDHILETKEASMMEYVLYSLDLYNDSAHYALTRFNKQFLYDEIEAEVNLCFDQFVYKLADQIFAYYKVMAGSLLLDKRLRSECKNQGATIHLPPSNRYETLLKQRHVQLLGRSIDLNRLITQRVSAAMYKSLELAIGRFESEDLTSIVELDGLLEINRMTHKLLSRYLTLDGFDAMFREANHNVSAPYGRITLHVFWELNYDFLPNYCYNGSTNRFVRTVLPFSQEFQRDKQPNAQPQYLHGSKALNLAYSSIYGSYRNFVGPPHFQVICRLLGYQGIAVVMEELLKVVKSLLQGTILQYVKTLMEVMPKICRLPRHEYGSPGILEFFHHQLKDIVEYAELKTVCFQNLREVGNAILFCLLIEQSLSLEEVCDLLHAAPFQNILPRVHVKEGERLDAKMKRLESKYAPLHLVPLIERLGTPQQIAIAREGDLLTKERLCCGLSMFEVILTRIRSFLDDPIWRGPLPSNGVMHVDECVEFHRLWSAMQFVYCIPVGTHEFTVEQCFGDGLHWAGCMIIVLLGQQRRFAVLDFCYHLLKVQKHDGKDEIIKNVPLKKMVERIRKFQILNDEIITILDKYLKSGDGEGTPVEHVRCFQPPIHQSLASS

binding result: no binding (tested: 10 µM)
B1: SCR2, scrambled stapled control peptide for WAHM2 (peptide)
peptide: {Biotin-AEEEA}-TRAILL[S5]ITK[S5]QNELK-NH2
modifications: staple 7-11; not fully specified
notes: Negative control; also called SCR peptides

binding result: no binding (tested: 10 µM)
B2: SCR1, scrambled stapled control peptide for WAHM1 (peptide)
peptide: {Biotin-AEEEA}-SRA[S5]LLI[S5]TKIQNELK-NH2
modifications: staple 4-8; not fully specified
notes: Negative control; also called scrambled control (SCR) peptide 1; SCR peptides
